{"source": "the nanobody polyreactivity screen of Harvey et al. (2022)"}
{"experiment": "yeast display, Sf9 membrane polyspecificity reagent, FACS + sequencing; frameworks hold sequencing errors", "how_it_was_run": "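In a synthetic yeast display library (Saccharomyces cerevisiae BJ5465), nanobody expression was induced with galactose for 36–48 hours. FACS gates were set low and high (top ~1%) using anti-HA fluorescence for expression and streptavidin fluorescence for binding of the Sf9 membrane reagent. Each polyreactivity label is drawn from the gate of origin.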"}
{"sequence": "QVQLVESGGGLVQAGGSLRLSCAASGITLDVNAMGWYRQAPGKERELVADITWSDDSTYYADSVKGRFTISRDNAKNTVYLQMNSLKPEDTAVYYCAADVSVSFHPRGYDYWGQGTQVTVSS", "polyreactivity (PSR sort gate)": "low polyreactivity"}
{"sequence": "QVQLVESGGGLVQAGGSLRLSCAASGITLGRYAMGWYRQAPGKERELVAAISRSGGSTYYADSVKGRFTISRDNEKNTVYLLMNSLKPEDTAVYYCNRRVYPTSDYDYWGQGTQVTVSS", "polyreactivity (PSR sort gate)": "high polyreactivity"}
{"sequence": "QVQLVESGGGLVQAGGSLRLSCAASGITLPAYTMGWYRQAPGKERELVAAISWGGTSTYYADSVKGRFTISRDNAKNTVYLQMNSLKPEDTAVYYCNKAYATYPGYDYWGQGTQVTLSS", "polyreactivity (PSR sort gate)": "high polyreactivity"}
{"sequence": "QVQLVESGGGLVQAGGSLRLSCAASGITLPYYAMGWYRQAPGKERELVAGISSRGGSTYYADSVKGRFTISRDNAKNTVYLQMNSLKPEDTAVYYCAAKVASTRLGPAYGYWGQGTQVTVSS", "polyreactivity (PSR sort gate)": "high polyreactivity"}
{"sequence": "QVQLVESGGGLVQAGGSLRLSCAASGITLSRNAMGWYRQAPGKERELVAAITWRTDRTYYADSVKGRFTISRDNAKNTVYLQMNSLKPEDTAVYYCAARTTVSSARYDYWGQGTQVTVSS", "polyreactivity (PSR sort gate)": "high polyreactivity"}
{"sequence": "QVQLVESGGGLVQAGGSLRLSCAASGITLSWYAMGWYRQAPGKERELVAGISGRGGRTYYADSVKGRFTLSRDNAKNTVYLQMNSLKPEDTAVYYCAADSPGYRSYDYWGQGTQVTVSS", "polyreactivity (PSR sort gate)": "high polyreactivity"}
{"sequence": "QVQLVESGGGLVQAGGSLRLSCAASGITLWQYAMGWYRQAPGKERELVAGITDTGDSTYYADSVKGRVTISRDNAKNTVYLQMNSLKPEDTAVYYCAVPRSALLRAPYELYSWGQGTQVTVSS", "polyreactivity (PSR sort gate)": "low polyreactivity"}
{"sequence": "QVQLVESGGGLVQAGGSLRLSCAASGITLYDNAMGWYRQAPGKERELVAAINVNDVSTYYADSVKGRFTISRDNAKNTVYLQMNSLKPEDTAVYYCAADSLYYGIGYWVVRYDYWGQGTQVTVSS", "polyreactivity (PSR sort gate)": "low polyreactivity"}
{"sequence": "QVQLVESGGGLVQAGGSLRLSCAASGITLYFYAMGWYRQAPWKERELVAAISRGGRTYYADSVKGRFTISRDNAKNTVYLQMNSLKPEDTAVYYCAARYTSEYSAFDYWGQGTQVTVSS", "polyreactivity (PSR sort gate)": "low polyreactivity"}
{"sequence": "QVQLVESGGGLVQAGGSLRLSCAASGITLYGNVMGWYRQAPGKERELVAAISGGSTFYADSVKGRFTISRDNAKNTVYLQMNSLKPEDTAVYYCSAEGYGYGSNVPYYYWGQGTQVTVSS", "polyreactivity (PSR sort gate)": "low polyreactivity"}
{"sequence": "QVQLVESGGGLVQAGGSLRLSCAASGITLYRYAMGCYRQAPGKERELVADISSGGGTTYYADSVKGRFTISRDNAKNTVYLQMNSLKPEDTAVYYCAADYGFRYPLYDYWGQGTQVTVSS", "polyreactivity (PSR sort gate)": "low polyreactivity"}
{"sequence": "QVQLVESGGGLVQAGGSLRLSCAASGITLYRYAMGWYRQAPGKERELVADISSGGGTTYYADSVKGRFTISRDNAKNTVYLQMNSLKPEDTAVYYCAADYGFRYPLYDYWGQGTQVTVSS", "polyreactivity (PSR sort gate)": "low polyreactivity"}
{"sequence": "QVQLVESGGGLVQAGGSLRLSCAASGITLYWYAMGWYRPAPGKERELVAAISRRGGTTYYADSVKGRFTISRDNAKNTVYLQMNSLKPEDTAVYYCAKAPDTQTSWSRQEGNYWGQGTQVTVSS", "polyreactivity (PSR sort gate)": "low polyreactivity"}
{"sequence": "QVQLVESGGGLVQAGGSLRLSCAASGITSDQNAMGWYRQAPGKERELVAAISWSGGSTYYADSVKGRFTISRDNAKNTVYLQMNSLKPEDTAVYYCAADIYTAYYEFDYWGQGTQVTVSS", "polyreactivity (PSR sort gate)": "low polyreactivity"}
{"sequence": "QVQLVESGGGLVQAGGSLRLSCAASGITSGNNALGWYRQAPGKERELVAALSWTGGSTYYADSVKGRFTISRDNAKNTVYLQMNSLKPEDTAVYYCAAKGLRYRDIDYDYWGQGTQVTVSS", "polyreactivity (PSR sort gate)": "low polyreactivity"}
{"sequence": "QVQLVESGGGLVQAGGSLRLSCAASGITSRFNAMGWYRQAPGKERELVAAISSRGTSTYYADSVKGRFTISRDNAKNTVYLQMNTLKPEDTAVYYCAVSQRAPKFPGDYWGQGPQVTVSS", "polyreactivity (PSR sort gate)": "high polyreactivity"}
{"sequence": "QVQLVESGGGLVQAGGSLRLSCAASGITSRQYAMGWYRQAPGKERELVAAISFSGGRTYYADSVKGRFTISRDNAKNTVYLQMNSLKPEVTAVYYCATRNRYSPRDYWGQGTQVTVSS", "polyreactivity (PSR sort gate)": "high polyreactivity"}
{"sequence": "QVQLVESGGGLVQAGGSLRLSCAASGITSTVYAMGWYRQAPGKERELVAGISWSTSSTYYADSVKGRFTISRDNAKNTVYVQMNSLKPEDTAVYYCAKAGAYKYGYWGQGTQVTVSS", "polyreactivity (PSR sort gate)": "high polyreactivity"}
{"sequence": "QVQLVESGGGLVQAGGSLRLSCAASGITSYGYAMGWYIQAPGKERELVAAISRSGGTTYYADSVKGRFTISRDNAKNTVYLQMNSLKPEDTAVYYCALGKSHRGGGVSKFNYWGQGTQVTVSS", "polyreactivity (PSR sort gate)": "low polyreactivity"}
{"sequence": "QVQLVESGGGLVQAGGSLRLSCAASGITSYYYTMGWYRQAPGKERELVAAITSGGSTYYADSVKGRFTISRDNAKNTVYLQMNSLKPEDNAVYYCTADNPRYRGSKYGPYDDYNYWGQGTQVTVSS", "polyreactivity (PSR sort gate)": "low polyreactivity"}
{"sequence": "QVQLVESGGGLVQAGGSLRLSCAASGITVFENAMGWYRQAPGKERELVAAISYSGGSTYYADSVKGRFTISRDNAKNTVYLQMNSLKPEDTAVYYCAADWYYFLYIRNRWGYGYWGQGTQVTVSS", "polyreactivity (PSR sort gate)": "high polyreactivity"}
{"sequence": "QVQLVESGGGLVQAGGSLRLSCAASGITVGYYAMGWYRLAPGKERELVAAITRGGGSTYYADSVKGRFTISRDNAKYTVYVQKNSLKPEDTAVYYCAAKTSGPGAGHDYWGQGTQVTVSS", "polyreactivity (PSR sort gate)": "high polyreactivity"}
{"sequence": "QVQLVESGGGLVQAGGSLRLSCAASGITYWKYAMGWYRQAPGKERELVAAISKSGGSTYYADSVKGRFTISRDNAKNTVYLQMNSLKPEDTAVYYCAAVPGPASKYGYWGQGTQVTVSS", "polyreactivity (PSR sort gate)": "high polyreactivity"}
{"sequence": "QVQLVESGGGLVQAGGSLRLSCAASGKTFRYNAMGWYRQAPGKERELVAAISRRGGSTYYADSVKGRFTISRDNAKNTVYLQMNSLKPEDTAVYYCNAGRTAENEYWGQGTQVTVSS", "polyreactivity (PSR sort gate)": "high polyreactivity"}
{"sequence": "QVQLVESGGGLVQAGGSLRLSCAASGLIFAGYTMGWYRQAPGKERELVAAISISGGSTYYADSVKGRFTISRDNAKNTVYLQMNSLKPEDTAVYYCASKRRSWPPTYYYWGQGTQVTVSS", "polyreactivity (PSR sort gate)": "high polyreactivity"}
{"sequence": "QVQLVESGGGLVQAGGSLRLSCAASGLIFAIYAMGWYRQAPGNERELVAAIRWSGASTYADSVKGRFTISRDNAKNTVYLQMNSLKPEDTAVYYCAADDLLDYDYWGQGTQVTVSS", "polyreactivity (PSR sort gate)": "low polyreactivity"}
{"sequence": "QVQLVESGGGLVQAGGSLRLSCAASGLIFARNAMGWYRQAPGKERELVAAITYSGSRTYYADSVKGRFTISRDNAKNTVYLQMNSLKPEDTAVYYCAARHRYSAVTEYNYWGQGTQVTVSS", "polyreactivity (PSR sort gate)": "high polyreactivity"}
{"sequence": "QVQLVESGGGLVQAGGSLRLSCAASGLIFATYAMRWYRQAPGKERELVADITTTGSTYYADSVKGRFTISRDNAKNTVYLQMNSLKPEDTAVYYCAAYGRWLTWYDFDYWGQGTQVTVSS", "polyreactivity (PSR sort gate)": "high polyreactivity"}
{"sequence": "QVQLVESGGGLVQAGGSLRLSCAASGLIFAYYAMGWYRQAPGKERELVAAISWSGDNTYYADSVKGRFTISRDNAKNTVYLEMNSLKPEDTAVYYCNVDTYGAWSWYYGLHHMDYWGQGTQVTVSS", "polyreactivity (PSR sort gate)": "low polyreactivity"}
{"sequence": "QVQLVESGGGLVQAGGSLRLSCAASGLIFAYYTMGWYRQAPGKERELVAAITSGVRTYYADSVKGRFTISRDNAKNTVYLQMNSLKPEDTAVYYCAAGLSGSTQATIFWGYYYWGQGTQVTVSS", "polyreactivity (PSR sort gate)": "low polyreactivity"}
{"sequence": "QVQLVESGGGLVQAGGSLRLSCAASGLIFDTYAMGWYRQAPGKEREWVADITWSGGSTYYADSVKGRFTISRDNAKNTVYLQMNSLKPEETAVYYCAADSVSLFYWDQRYPDEYDYWGQGTQVTVSS", "polyreactivity (PSR sort gate)": "low polyreactivity"}
{"sequence": "QVQLVESGGGLVQAGGSLRLSCAASGLIFDYYAMGWYRQAPGKERELVAAISANTGRTYYADSVKGRFTISRDNAKNTVYLQMNSLKPEDTAVYYCAAYTQYDGAEFDYWGHGTQVTVSS", "polyreactivity (PSR sort gate)": "high polyreactivity"}
{"sequence": "QVQLVESGGGLVQAGGSLRLSCAASGLIFENNAMGWYRQAPGKERELVAAITKGGGSTYYADSVKGRFTISRDNAKNTVYLQMNSLKPVDTAVYYCAKDHPWHRYWQYWYDYWGLGTQVTVSS", "polyreactivity (PSR sort gate)": "low polyreactivity"}
{"sequence": "QVQLVESGGGLVQAGGSLRLSCAASGLIFENNAMGWYRQAPGKERELVAAITYSGGSTYYADSVKGRFTISRDNAKNTVYLQMNSLKPEDTAVYYCAAESYRRYGYDYWGQGTQVTVSS", "polyreactivity (PSR sort gate)": "high polyreactivity"}
{"sequence": "QVQLVESGGGLVQAGGSLRLSCAASGLIFFWYTMGWYRKAPGKERELVAAIDSGGSTYYADSVKGRFTISRDNAKNTVYLQMNSLKPEDTAVYYCNADPGWGIYDDYWVQGTQVTVSS", "polyreactivity (PSR sort gate)": "high polyreactivity"}
{"sequence": "QVQLVESGGGLVQAGGSLRLSCAASGLIFFWYTMGWYRQAPGKERELVAAISGSGTGTYYADSVKGRFTISRDNAKNTVYLQMNSLIPEDTAVYYCATDYVYRGYLMNYWGQGTQVTVSS", "polyreactivity (PSR sort gate)": "high polyreactivity"}
{"sequence": "QVQLVESGGGLVQAGGSLRLSCAASGLIFFYLNDMGWYRQAPGKERELVATITSGTSTTYADSVKGRFTISRDNAKNTVYLQMNSLKPEDTAVYYCNATDVGIITVGYGHGGYYWGQGTQVTVSS", "polyreactivity (PSR sort gate)": "low polyreactivity"}
{"sequence": "QVQLVESGGGLVQAGGSLRLSCAASGLIFGDYVMGWYRQAPGKERELVAAISNNGDSTYYADSVKGRFTISRDNAKNTVYLQMNSLIPEDTAVYYCNADGDRGGYVLTEHDSWGQGTQVTVSS", "polyreactivity (PSR sort gate)": "low polyreactivity"}
{"sequence": "QVQLVESGGGLVQAGGSLRLSCAASGLIFGGTAMGWYRQAPGKERELVAAITYRTGSTYYADSVKGRFTISRDNAKNTVYLQMNSLKPEDTAVYYCAAAVSLGYPVAFYYWGQGTQVTVSS", "polyreactivity (PSR sort gate)": "low polyreactivity"}
{"sequence": "QVQLVESGGGLVQAGGSLRLSCAASGLIFGKYAMGWYRQAPGKERELVAAITSSGGGTYYADSVKGRFTISRDNAKNTVYLQMNSLKPEDTAVYYCATGPDPKYDYWGQGTQVTVSS", "polyreactivity (PSR sort gate)": "high polyreactivity"}
